Data reported in article PMC4719306 (Genes & Development, 2016).

B1: Flag-tagged full-length PA1 (recombinant) (natural protein, UniProt Q99L02 1-253, looked up)
chain: MSLALGHGTIAGSTAAPLSEEGEVTSGLQALAVEDTGGPSVSASKAEEEGKGSQEEAGREGSRPEEALEAPSAASDERAEGEAEDWCVPCSDEEVELPANGQSWMPPPSEIQRLYELLATQGTLELQAEILPRRPPTPEAQSEEERSDEEPEAKEEEEEKPHMPTEFDFDDEPMTPKDSLIDRRRTPGSSARSQKREARLDKVLSDMKRHKKLEEQILRTGRDLFSLDSEGPSPTSPPLRSSGNSLFPRQRKY
B2: Strep-tagged N-terminal BRCT1–2 domain fragment of PTIP (recombinant) (domain or fragment)
chain: VPEELFREVKYYAVGDIDPQVIQLLKAGKAKEVSYNALASHIISEDGDNPEVGEAREVFDLPVVKPSWVTLSVQCGALLPVNGFSPESCQIFFGLTACLSQVSSEDRSALWALVTFHGGSCQLNLNKKCTHLIVPEPKGEKYERAVKRTSIKIVTPDWVLDCVSEKRRKDEAFYHP

Columns and labels:
[1] = target: B2; test: ITC
[2] = target: B1; test: ITC

Row | dH [1] [kcal/mol] | stoichiometry N [1] | Kd [2] [nM] | Binder
1 | -26 | 1 |  | B1
2 |  |  | 7.1 | B2
